Among the data in patent US6432922 (CORVAS INTERNATIONAL, dated 2002) are IC50 values, retold here.

Several values for one entry are separate records, joined by “and”; a condition that tells them apart may be missing. Equal values may be shown once. Non-standard residues stand in square brackets, D forms with d. Primed or numbered codes have the meaning given here. No end group written: not given here. *: point of attachment. cyclohexylmethylazacarbonyl = cyclohexylmethylazacarbonyl N-terminal cap, introduced with cyclohexylmethyl isocyanate, O=C(NCC1CCCCC1)*; benzylazacarbonyl = benzylazacarbonyl N-terminal cap (benzylaminocarbonyl), introduced with benzyl isocyanate, O=C(NCc1ccccc1)*; Argininal = arginine aldehyde, N=C(N)NCCC[C@@H](C=O)N*; argininal = arginine aldehyde, N=C(N)NCCC[C@@H](C=O)N*; aldehyde′ = argininal (arginine aldehyde) C-terminus; Propanoyl(3-cHex) = O=C(CCC1CCCCC1)*; Isobutyloxycarbonyl = CC(C)COC(=O)*; d(aThr) = C[C@@H](O)[C@@H](N)C(=O)O; cisHyp = O=C(O)[C@@H]1C[C@H](O)CN1; Isopropoxycarbonyl = CC(C)OC(=O)*; 3‑phenylpropyl = c1ccc(CCC*)cc1; d(hSer) = N[C@H](CCO)C(=O)O; Isovaleryl = CC(C)CC(=O)*; NMeA = CN[C@@H](C)C(=O)O; dAbu = CC[C@@H](N)C(=O)O; dDap = NC[C@@H](N)C(=O)O; Cbz = O=C(OCc1ccccc1)*; Sar = CNCC(=O)O Where only a bound is given, the exact number is not on record here.

What all share (test): cell-based or functional assay
In assay [1] the target is Human rt-PA (Activase), obtained from Genentech Inc. (human, UniProt P00750 36-562).
In assay [2] the target is Purified human plasmin, obtained from Enzyme Research Laboratories, Inc. (human, UniProt P00747 97-810, limits assumed).
For assay [3], the target named is Urokinase (Abbokinase), manufactured by Abbott Laboratories (UniProt P00749 156-431).

Sequence of Human rt-PA (Activase), obtained from Genentech Inc. (P00750 36-562 limits assumed): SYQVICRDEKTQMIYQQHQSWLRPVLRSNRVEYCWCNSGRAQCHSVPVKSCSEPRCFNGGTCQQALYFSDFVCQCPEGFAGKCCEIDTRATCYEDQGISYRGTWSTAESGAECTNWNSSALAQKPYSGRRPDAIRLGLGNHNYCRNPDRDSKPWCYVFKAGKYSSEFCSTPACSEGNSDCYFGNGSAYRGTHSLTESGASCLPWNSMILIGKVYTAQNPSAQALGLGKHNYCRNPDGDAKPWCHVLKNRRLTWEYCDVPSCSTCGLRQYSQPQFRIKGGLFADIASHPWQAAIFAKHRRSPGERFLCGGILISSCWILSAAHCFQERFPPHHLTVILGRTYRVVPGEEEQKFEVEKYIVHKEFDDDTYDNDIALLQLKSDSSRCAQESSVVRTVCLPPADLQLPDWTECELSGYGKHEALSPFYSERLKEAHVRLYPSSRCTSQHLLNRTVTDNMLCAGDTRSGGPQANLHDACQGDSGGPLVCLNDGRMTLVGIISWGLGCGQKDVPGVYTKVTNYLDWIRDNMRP
Sequence of Purified human plasmin, obtained from Enzyme Research Laboratories, Inc. (P00747 97-810 limits assumed): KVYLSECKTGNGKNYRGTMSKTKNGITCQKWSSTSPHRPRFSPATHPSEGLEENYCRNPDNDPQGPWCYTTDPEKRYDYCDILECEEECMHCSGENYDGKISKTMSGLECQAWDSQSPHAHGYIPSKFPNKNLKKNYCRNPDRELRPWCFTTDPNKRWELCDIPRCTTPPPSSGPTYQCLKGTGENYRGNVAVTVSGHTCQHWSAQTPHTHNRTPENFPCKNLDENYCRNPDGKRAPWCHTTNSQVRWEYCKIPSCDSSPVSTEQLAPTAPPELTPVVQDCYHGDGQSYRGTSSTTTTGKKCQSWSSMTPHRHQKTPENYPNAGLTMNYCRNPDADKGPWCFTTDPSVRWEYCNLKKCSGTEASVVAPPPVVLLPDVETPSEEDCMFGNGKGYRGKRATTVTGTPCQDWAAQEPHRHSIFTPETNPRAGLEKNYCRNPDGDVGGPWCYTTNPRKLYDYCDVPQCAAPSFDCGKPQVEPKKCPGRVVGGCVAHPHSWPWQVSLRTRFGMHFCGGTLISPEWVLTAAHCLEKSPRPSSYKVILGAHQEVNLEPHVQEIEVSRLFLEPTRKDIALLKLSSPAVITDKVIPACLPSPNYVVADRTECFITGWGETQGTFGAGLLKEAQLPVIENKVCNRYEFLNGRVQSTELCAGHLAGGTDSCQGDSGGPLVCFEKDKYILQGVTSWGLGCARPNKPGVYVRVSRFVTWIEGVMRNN

On to Cbz-[dDap](Cbz)-Ala-[argininal] [N-α-N-β-dibenzyloxycarbonyl-D-2,3-diaminopropionyl-alanyl-argininal], for which the concentration for half-maximal inhibition (IC50) is more than 2500 nM in assay [1]; ≥ 100 nM and ≤ 250 nM in assay [2]; ≥ 100 nM and ≤ 250 nM in assay [3].
In the case of phenoxycarbonyl-[dS]-Ala-[argininal] [phenoxycarbonyl-D-seryl-alanyl-argininal], the IC50 in assay [1] was more than 2500 nM; in assay [3], less than 100 nM.
With Cbz-[dDap](methyloxycarbonyl)-Ala-[argininal] [N-α-benzyloxycarbonyl-N-β-methyloxycarbonyl-D-2,3-diaminopropionyl-alanyl-argininal], the IC50 in assay [1] is more than 2500 nM.
Turning to Cbz-[dS]-Pro-[argininal] [benzyloxycarbonyl-D-seryl-prolyl-argininal], the concentration for half-maximal inhibition (IC50) is more than 2500 nM in assay [1] and less than 100 nM in assay [3].
For {n‑butyloxycarbonyl}-[dS]-Ala-[argininal] [n-butyloxycarbonyl-D-seryl-alanyl-argininal], the values for the IC50 in assay [1] and in assay [3] were more than 2500 nM and less than 100 nM, respectively.
As for Cbz-[d(hSer)]-Pro-[argininal] [benzyloxycarbonyl-D-homoseryl-prolyl-argininal], the 50% inhibitory concentration (IC50) in assay [1] is more than 2500 nM; in assay [2] it was less than 100 nM; in assay [3], ≥ 100 nM and ≤ 250 nM.
With Cbz-[dDap](2‑phenylethylcarbonyl)-Ala-[argininal] [N-α-benzyloxycarbonyl-N-β-2-phenylethylcarbonyl-D-2,3-diaminopropionyl-alanyl-argininal], the half-inhibitory concentration (IC50) in assay [1] was more than 2500 nM.
Regarding Cbz-[d(aThr)]-[Sar]-Arg-{aldehyde′} [benzyloxycarbonyl-D-allothreonyl-sarcosyl-argininal], the IC50 in assay [3] was ≥ 100 nM and ≤ 250 nM.
Turning to Cbz-[dS]-[Sar]-[argininal] [benzyloxycarbonyl-D-seryl-sarcosyl-argininal], the half-inhibitory concentration (IC50) in assay [1] was more than 2500 nM.
Turning to benzenesulfonyl-[dS]-Ala-Arg-{aldehyde′} (also: trifluoroacetate salt) [Benzenesufonyl-D-Ser-L-Ala-L-Arg-al, Trifluoroacetate Salt], the IC50 is more than 2500 nM in assay [1] and less than 100 nM in assay [3].
Consider {Propanoyl(3-cHex)}-[dS]-Ala-Arg-{aldehyde′} [3-cyclohexylpropionyl-D-seryl-alanyl-argininal], for which the IC50 in assay [1] and in assay [2] was more than 2500 nM throughout.
In the case of {(+)menthyloxycarbonyl}-[dS]-Ala-[Argininal] [(+)menthyloxy-carbonyl-D-seryl-alanyl-argininal], the 50% inhibitory concentration (IC50) is more than 2500 nM in assay [1] and less than 100 nM in assay [3].
Cbz-Ser-Ala-[argininal] [benzyloxycarbonyl-seryl-alanyl-argininal] came in with a concentration for half-maximal inhibition (IC50) in assay [1] of more than 2500 nM.
With cyclohexylmethyloxycarbonyl-[dS]-Ala-[argininal] [cyclohexylmethyloxycarbonyl-D-seryl-alanyl-argininal], the results for the concentration for half-maximal inhibition (IC50) in assay [1] and in assay [3] were more than 2500 nM and less than 100 nM, respectively.
Regarding fluorenylmethyloxycarbonyl-[dS]-Ala-[argininal] [fluorenylmethyloxycarbonyl-D-seryl-alanyl-argininal], the IC50 in assay [1] was more than 2500 nM; in assay [3] it was less than 100 nM.

B1: Isobutyloxycarbonyl-D-seryl-L-alanyl-argininal (peptide)
peptide: isobutyloxycarbonyl-[dS]-Ala-[Argininal]
modifications: not fully specified (C-terminus); printed as i-Butoxycarbonyl-D-Ser-L-Ala-Argininal; also: trifluoroacetate salt
B1: the half-maximal inhibitory concentration (IC50) in assay [1] is more than 2500 nM; in assay [3] it was less than 100 nM.
Turning to {trans‑β‑styrenesulfonyl}-[dS]-Ala-[argininal] [trans-β-Styrenesulfonyl-D-seryl-L-alanyl-argininal], the half-maximal inhibitory concentration (IC50) in assay [1] was more than 2500 nM; in assay [3], less than 100 nM.
In the case of Isobutyloxycarbonyl-[dS]-Ala-Arg-{CO‑phenethylamide} (also: trifluoroacetate salt) [i-butoxycarbonyl-D-Ser-Ala-Arg-CO-phenethylamide, trifluoroacetate salt], the 50% inhibitory concentration (IC50) in assay [1] was more than 2500 nM; in assay [3], ≥ 100 nM and ≤ 250 nM.
On to Cbz-[d(aThr)]-Ala-Arg-{aldehyde′} [benzyloxycarbonyl-D-allothreonyl-alanyl-argininal], for which the results for the IC50 in assay [1] and in assay [3] were more than 2500 nM and less than 100 nM, respectively.
With benzylsulfonyl-[dS]-Ala-Arg-{aldehyde′} (also: trifluoroacetate salt) [Benzylsulfonyl-D-Ser-Ala-Arg-al, Trifluoroacetate Salt], the values for the IC50 in assay [1] and in assay [3] were more than 2500 nM and less than 100 nM, respectively.
Consider Cbz-[dT]-Ala-[argininal] [benzyloxycarbonyl-D-threonyl-alanyl-argininal], for which the IC50 in assay [1] was more than 2500 nM.
As to Cbz-[dT]-Pro-[argininal] [benzyloxycarbonyl-D-threonyl-prolyl-argininal], the IC50 is more than 2500 nM in assay [1]; ≥ 100 nM and ≤ 250 nM in assay [3].
For methyloxycarbonyl-[dS]-Ala-[argininal] [methyloxycarbonyl-D-seryl-alanyl-argininal], the IC50 in assay [1] is more than 2500 nM; in assay [3], less than 100 nM.
Take Cbz-[dS]-Ser-Arg-{aldehyde′} [benzyloxycarbonyl-D-seryl-L-seryl-argininal]: the IC50 in assay [1] was more than 2500 nM; in assay [3] it was ≥ 100 nM and ≤ 250 nM.
For Cbz-[dS]-[cisHyp]-Arg-{aldehyde′} [benzyloxycarbonyl-D-seryl-L-cis-4-hydroxyprolyl-argininal], the values for the IC50 in assay [1] and in assay [3] were more than 2500 nM and less than 100 nM, respectively.
As for {2‑ethylhexyloxycarbonyl}-[dS]-Ala-Arg-{aldehyde′} [2-ethylhexyloxy-carbonyl-D-seryl-alanyl-argininal], the IC50 in assay [1] was more than 2500 nM; in assay [3], less than 100 nM.
On to Isovaleryl-[dS]-Ala-[argininal] [isovaleryl-D-seryl-alanyl-argininal], for which the IC50 in assay [1] and in assay [2] was more than 2500 nM in each case.
The molecule Cbz-[dS]-Ala-[argininal] [benzyloxycarbonyl-D-seryl-alanyl-argininal] returned an IC50 in assay [3] of less than 100 nM.
{3‑phenylpropyl}-[dS]-Ala-Arg-{aldehyde′} (also: trifluoroacetate salt) [N-α-(3-phenylpropyl)-D-seryl-alanyl-argininal, trifluoroacetate salt]: the 50% inhibitory concentration (IC50) was more than 2500 nM in assay [1] and less than 100 nM in assay [3].
On to Cbz-Thr-Ala-[argininal] [benzyloxycarbonyl-threonyl-alanyl-argininal], for which the IC50 in assay [1] is more than 2500 nM; in assay [3], ≥ 100 nM and ≤ 250 nM.
With {(−)menthyloxycarbonyl}-[dS]-Ala-[Argininal] [(-)menthyloxy-carbonyl-D-seryl-alanyl-argininal], the IC50 is more than 2500 nM in assay [1] and less than 100 nM in assay [3].
With Cbz-[dS]-Cys(Me)-Arg-{aldehyde′} [benzyloxycarbonyl-D-seryl-S-methylcysteinyl-argininal], the IC50 is more than 2500 nM in assay [1]; ≥ 100 nM and ≤ 250 nM in assay [3].
Turning to Cbz-[dA]-Ala-Arg-{aldehyde′} [benzyloxycarbonyl-D-alanyl-alanyl-argininal], the 50% inhibitory concentration (IC50) in assay [3] is ≥ 100 nM and ≤ 250 nM.
With Cbz-[dS]-Gly-Arg-{aldehyde′} [benzyloxycarbonyl-D-seryl-2-glycyl-argininal], the IC50 is more than 2500 nM in assay [1]; ≥ 100 nM and ≤ 250 nM in assay [3].
Take {2‑phenylethylsulfonyl}-[dS]-Ala-Arg-{aldehyde′} [2-phenylethylsulfonyl-D-seryl-alanyl-argininal]: the results for the IC50 in assay [1] and in assay [3] were more than 2500 nM and less than 100 nM, respectively.
Regarding Isopropoxycarbonyl-[dS]-Ala-[argininal] [isopropyloxycarbonyl-D-seryl-alanyl-argininal], the half-maximal inhibitory concentration (IC50) in assay [1] is more than 2500 nM; in assay [2], more than 2500 nM; in assay [3] it was less than 100 nM.
On to benzylazacarbonyl-[dS]-Ala-Arg-{aldehyde′} [benzylazacarbonyl-D-seryl-alanyl-argininal], for which the half-inhibitory concentration (IC50) in assay [1] was more than 2500 nM; in assay [2], more than 2500 nM; in assay [3], ≥ 100 nM and ≤ 250 nM.
Consider Cbz-[dAbu]-Ala-[argininal] [benzyloxycarbonyl-D-2-aminobutyryl-L-alanyl-argininal], for which, in assay [1], the IC50 is more than 2500 nM.
For the molecule Cbz-[d(aThr)]-[NMeA]-Arg-{aldehyde′} [benzyloxycarbonyl-D-allothreonyl-N-methylalanyl-argininal], in assay [3], the IC50 is ≥ 100 nM and ≤ 250 nM.
As for cyclohexylmethylazacarbonyl-[dS]-Ala-[argininal] [cyclohexylmethylazacarbonyl-D-seryl-alanyl-argininal], the IC50 in assay [1] is more than 2500 nM; in assay [2], more than 2500 nM; in assay [3], ≥ 100 nM and ≤ 250 nM.
With {2‑naphthyloxycarbonyl}-[dS]-Ala-Arg-{aldehyde′} [2-naphthyloxy-carbonyl-D-seryl-alanyl-argininal], the IC50 in assay [1] is more than 2500 nM; in assay [3] it was less than 100 nM.
Consider {3‑phenylpropylsulfonyl}-[dS]-Ala-Arg-{aldehyde′} [3-phenylpropylsulfonyl-D-seryl-alanyl-argininal], for which the 50% inhibitory concentration (IC50) is more than 2500 nM in assay [1] and less than 100 nM in assay [3].
